The target in assay [1] is T1, human CD24 on cells (human, UniProt P25063 27-59).
T1 chain (looked up): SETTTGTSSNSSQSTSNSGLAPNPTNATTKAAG
Put plainly: cell-based or functional assay.

The target in assay [2] is T1, human CD24 on cells. Put plainly: flow cytometry (MFI), MCF-7 cells [Cont'd) B].
Assay [3] deals with T1, human CD24 on cells. Put plainly: flow cytometry (MFI), NALM6 cells [Cont'd) B]. (In flow cytometry, cells or beads pass a laser one at a time.)
In assay [4] the target is T1, human CD24 on cells. Description: cell-based or functional assay.
For assay [5], the target named is T2, CD24-his protein (human, UniProt P25063 27-59, posttranslational modification (purified from mammalian cell)).
T2 construct: Purified from mammalian (HEK293) cells; also called soluble recombinant CD24 protein; human HEK293 purified CD24-his protein; not shown: His tag
T2 chain (looked up): T1 chain (looked up)
Description: standard ELISA on CD24-his. The text has this:
(§1) Since human CD24 contains only 33 core amino acids, and is heavily glycosylated, two different proteins were used to perform protein binding assay. CD24-his protein was purified from mammalian cell and as modified by posttranslational modification. While CD24-GST was purified from E. coli with no PTM.
Background: ELISA stands for enzyme-linked immunosorbent assay.

Assay [6] addresses T1, human CD24 on cells. Put plainly: flow cytometry (GMFI), A549 cells. On the procedure:
(§2) Antibodies were 4-fold serially diluted from 40 μg/mL and incubated with MCF7 cells (panel A), OVCAR3 cells (panel B), A549 cells (panel C), and NALM6 cells (panel D) cells for 30 minutes at 4° C. in FACS buffer. Then, PE conjugated-anti-human IgG (H+L) antibody was added and incubated for another 30 minutes. After washing, geometric mean fluorescence intensity (GMFI) of PE was evaluated by FACS.
(§3) Here we used four CD24 highly expressed tumor cell lines MCF7 (breast cancer), OVCAR3 (ovarian cancer), A549 (lung cancer), and NALM6 ([…]).

The target of assay [7] is T1, human CD24 on cells. Description: flow cytometry (GMFI), MCF-7 cells. As to the method: as §2, §3
Assay [8] addresses T1, human CD24 on cells. Description: flow cytometry (GMFI), NALM6 cells. As to the method: as §2, §3
Assay [9] concerns the target T1, human CD24 on cells. Description: flow cytometry (GMFI), OVCAR3 cells. As to the method: as §2, §3
Assay [10] deals with T1, human CD24 on cells. Description: flow cytometry on MCF7, OVCAR3, A549 and NALM6 cells. As to the method:
as §2, §3

The target of assay [11] is T2, CD24-his protein. Description: ELISA, CD24-his (HEK 293), unit taken from the concentration axis.
Source text: as §1

Assay [12] deals with T1, human CD24 on cells. Put plainly: flow cytometry (GMFI), MCF-7 cells.
In assay [13] the target is T1, human CD24 on cells. Description: flow cytometry (GMFI), NALM6 cells.
Assay [14] has as its target T2, CD24-his protein. Description: ELISA, CD24-his(HEK 293) [Cont'd) B].
The target in another assay is T3, CD24-his-GST(Ecoli).
T3 construct: also called CD24-GST
T3 chain: T1 chain (looked up)
Description: ELISA, CD24-his-GST(Ecoli) [Cont'd) B].

Assay [15] deals with T1, human CD24 on cells. Description: flow cytometry (GMFI), MCF-7 cells [Cont'd) C].
The target of assay [16] is T1, human CD24 on cells. Put plainly: flow cytometry (GMFI), MC38-hCD24 cells [Cont'd) C].
In another assay the target is T4, Human CD24 (human, UniProt P25063 27-59, limits assumed).
T4 chain (looked up): T1 chain (looked up)
Put plainly: Biacore (SPR); antibody as ligand, human CD24 as analyte.

The target of assay [17] is T1, human CD24 on cells. Description: Siglec10-PE competition assay (GMFI); competitor Siglec-10; CD24 source not named on the sheet [Cont'd) D].
In assay [18] the target is T2, CD24-his protein. Put plainly: Siglec10-PE competition assay (gMFI on the sheet); legend: Siglec-10-his-Biotin mixed with the antibody, plate coated with CD24 protein. As to the method: Samples were washed three times with washing buffer. And then signal was tested.
CD24-his protein was firstly coated in 96-well plate overnight.

Positions count from the first letter of the chain named.

B1: 85-D5A10 (4434), IgG4, Kappa (antibody, V domains shown)
VH: EVQLQQSGPELVKPGASVKISCKASGYEFTGYHMNWVKQSPEKSLEWIGEINPITSDKTFNQKFKAKATLTVDRSSSTAYMHLKSLTSDDSAVYYCARRDYGTSLDYWGQGTTLTVSS
VL: DVQITQSPSYLAASPGETITIYCRASKSISKYLAWYQEKPEKTIRLLIYAGSTLQSGIPSRFRGSGSGKDFTLTVSGLEPEDFAMYYCQQHNEYPITFGAGTKLELI
One may read the EC50 (read off the curve) as the concentration giving half of the maximal effect. Read a low EC50 (read off the curve) as greater potency. As to B1, in the assay with human CD24 on cells [1], the “EC50 of Phagocytosis assay, IgG4, Kappa; HEK293-CD24” value (shortened to “EC50 … HEK293-CD24”) amounted to 0.42 µg/mL; the “EC50 of Phagocytosis assay, IgG4, Kappa; MCF-7” value (“EC50 … MCF-7” below) was determined as 0.43 µg/mL; the “EC50 of Phagocytosis assay, IgG4, Kappa; NALM6” value (“EC50 … NALM6” below) was 0.47 µg/mL; the “EC50 of Phagocytosis assay, IgG4, Kappa; OVCAR3” value (“EC50 … OVCAR3” below) came to 0.38 µg/mL. Moreover, the “EC50 (read off the curve)” value in the assay with human CD24 on cells [2] was roughly 0.4 µg/mL. Further, in the assay with human CD24 on cells [3], the “EC50 (read off the curve)” value is roughly 0.4 µg/mL.

B2: 74-H4C6 (4451), IgG4, Kappa (antibody, V domains shown)
VH: B1 VH with E28D, A66S, H82Y, D89E
VL: B1 VL with I44N, Q55H, I107K
As for B2, in the assay with human CD24 on cells [1], the “EC50 … HEK293-CD24” value was found to be 0.44 µg/mL; the “EC50 … MCF-7” value came out at 0.74 µg/mL; the “EC50 … NALM6” value turned out to be 0.32 µg/mL; the “EC50 … OVCAR3” value worked out at 0.16 µg/mL. For the same molecule, the “EC50 (read off the curve)” value with human CD24 on cells [3] was roughly 0.4 µg/mL.

B3: 89-E8C12 (4428), IgG4, Kappa (antibody, V domains shown)
VH: B1 VH with E28D, H33Y, V37M, D57H, K58N, D89E
VL: B1 VL with K69T, I96L, I107K
On to B3, for which, in the assay with human CD24 on cells [1], the “EC50 … HEK293-CD24” value was 0.43 µg/mL; the “EC50 … MCF-7” value amounted to 0.96 µg/mL; the “EC50 … NALM6” value worked out at 0.57 µg/mL; the “EC50 … OVCAR3” value was 0.16 µg/mL. For the same molecule, the “EC50 (read off the curve)” value with human CD24 on cells [3] was roughly 0.5 µg/mL.

B4: 4451HM15-IgG1-3A (antibody, V domains shown)
VH: QVQLVQSGAEVKKPGASVKVSCKASGYDFTGYHMGWVRQAPGQGLEWMGEINPITSDKYFNQKFKSRVTMTRDTSISTAYMELSRLRSDDTAVYYCARRDYGTSLDYWGQGTTVTVSS
VL: DIQLTQSPSFLSASVGDRVTITCRASASISKYLAWYQQKPGKAPKLLIYAGSTLHSGIPSRFRGSGSGTEFTLTISSLQPEDFATYYCQQHNEYPITFGQGTKLEIKR
notes: Produced in a CHO-based system
The term EC50 denotes the concentration that produces a half-maximal response. Lower therefore signals higher potency in that assay. As for B4, the “EC50 of macrophage mediated phagocytosis against multiple tumor cells” value with human CD24 on cells [4] is 1.97 to 2.45 nM. Besides, the EC50 with CD24-his protein [5] is 10.1 µg/mL; with human CD24 on cells [10] it was 1.2 to 2.11 nM; in the assay with CD24-his protein [11], 0.0101 µg/mL. The “EC50 (read off the curve)” value is roughly 0.2 µg/mL with human CD24 on cells [6], roughly 0.2 µg/mL with human CD24 on cells [7], roughly 0.3 µg/mL with human CD24 on cells [8] and roughly 0.3 µg/mL with human CD24 on cells [9].

B5: 4451H-IgG4 (antibody, V domains shown)
VH: B4 VH with G35N, Y59T
VL: DIQLTQSPSFLSASVGDRVTITCRASKSISKYLAWYQQKPGKAPKLLIYAGSTLHSGIPSRFRGSGSGTEFTLTISSLQPEDFATYYCQQHNEYPITFGQGTKLEIK
notes: also called VH1+VL3 fused with human IgG4 Fc
Broadly, the Kd is the equilibrium constant for the complex coming apart. Low readings indicate higher affinity, high ones lower affinity. By koff is commonly meant a measure of how fast the partners let go of each other. Higher therefore signals fast dissociation. The kon is the second-order rate constant of association. Higher therefore signals fast association. Consider B5, for which the “EC50 (read off the curve)” value in the assay with human CD24 on cells [12] is roughly 0.2 µg/mL; with human CD24 on cells [13], roughly 0.3 µg/mL; with CD24-his protein [14], roughly 0.02 µg/mL; with CD24-his-GST(Ecoli), roughly 0.06 µg/mL; with human CD24 on cells [15] it was roughly 0.2 µg/mL; with human CD24 on cells [16] it was roughly 0.2 µg/mL. In the assay with Human CD24, this molecule displayed an equilibrium dissociation constant (Kd) of 15.5 nM. Besides, the koff in the assay with Human CD24 worked out at 0.0175 s⁻¹. Moreover, the kon in the assay with Human CD24 amounted to 1.13e+06 M⁻¹ s⁻¹. Further, in the assay with human CD24 on cells [17], the “IC50 (read off the curve)” value is roughly 1 µg/mL.

B6: 4451HM15-IgG4 (antibody, V domains shown)
VH: B4 VH
VL: B5 VL with K27A
notes: IgG4; also called IgG4 isoform of 4451HM15
In the case of B6, the “IC50 (read off the curve)” value in the assay with CD24-his protein [18] is roughly 1 µg/mL.
